Test system: MS2 coat protein
Test: apparent KD of MS2 coat protein; higher = weaker reporter binding
Settings: Eterna round: R107
How it was run: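 Values are apparent KD, taken as the median for each design of fits to normalised binding curves from individual clusters. The designed RNA switches were transcribed on-chip from Illumina sequencing clusters and exposed to SNAP-549-labelled MS2 coat protein at twofold increasing amounts from 0.7 or 1.5 nM to 3 µM. Titration used 100 mM Tris-HCl pH 7.5, 80 mM KCl and 4 mM MgCl2, without or with constant ligand.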

[1] = input ligand: theophylline 20 uM
[2] = input ligand: tryptophan 2.4 mM
[3] = input ligand: theophylline 2 mM

Row | Sequence | apparent KD of MS2 coat protein (input ligand: arginine 13.2 mM) [nM] | apparent KD of MS2 coat protein [1] [nM] | apparent KD of MS2 coat protein [2] [nM] | apparent KD of MS2 coat protein (input ligand: none) [nM] | apparent KD of MS2 coat protein [3] [nM]
1 | AUCGUACCUGAUGAUACCAGCAUGUGAUCGUAACAUGAGGAUCACCCAUGUGAUCAGUGAUGCCCUUGGCAGCAUGAUCGGUACA [Same State - Theophylline B (Freestyle 15)] | 36.6 | 35.8 | 36.7 | – | –
2 | AAUAAUAAGGCGGCCGCCACUACACAUGAGGAUCACCCAUGUCUCGCGGGCUUGCGUUGGGAAAGUAGGACCGGGCCAAUAAUAA [Exclusion - Tryptophan B (Freestyle 9)] | 15.3 | 26 | 15.7 | 21.5 | 27.3
3 | CUAUAAUGAAAACAUUAUAGAGUGGGUGAACGAGGACCGGUACGGCCGCCACUCGGACAUGAGGAUCACCCAUGUCCAUGUGAAA [AstrosExyTryA#24] | 11.2 | 18.9 | 31.9 | 15.6 | 17.7
4 | UUUGCACAUGAGGAUCACCCAUGUACAGAUACCAGCCUCAUCUACGGCCCUUGGCAGCUGAGACAAUGGUGACAUGAUGGGCUUU [Istein] | 16 | 20.4 | 12.3 | – | –
5 | AGCGGAACGGAAGGGUCCCAAAAUUGUGAUACCAGCCUUGAAUCCGGCCCUUGGCAGCACAUGAGGAUCACCCAUGUACUGCGAU [Laanor] | 11.2 | 19.2 | 12.8 | – | –
6 | UAGCGAUCUCGUUAAAGGAUCCCAUUUGAUACCAGAGAACUUUGCCUCCCUUGGCAGCAAGUGACAUGAGGAUCACCCAUGUUGA [theeternabot_exclusion_MS2_Theo_A_3] | 16.4 | 20 | 16.4 | – | –
7 | AAUGGGCGAGUAGAGCAUAAUUUCCACUCCCGAGGACCGGUACGGCCGCCACUCGUUCGCUCACAUGAGGAUCACCCAUGUGGUC [theeternabot_exclusion_MS2_Trp_A_17] | 24.7 | 32.3 | – | – | 40.3
8 | UGUAUGUGAUCUGAUACCAGCUUUGAUAACCUGAGGAUCACCCUGGUAAAGGCGAAAGCCAGCCCUUGGCAGCAGAUCGCAUACU | 69.8 | 39.6 | 49.6 | 49.1 | 20.7
9 | UGUAUGUGAUUUGAUACCAGACCAGCUGGUGGUGCAUGAGGAACACCCAUGCAGGUUUGGGUCCCUUGGCAGCAAAUCGCAUACU [SS Theo B #24 Ms19] | 149 | 150 | 130 | – | 33
10 | GGCACAUAGUCGGCCGCCACUAGUGGGAAAUGGGAGAACAUGAGGAUCACCCAUGUAGCGUAGCCUAGGACCGGGACUAUGUGCC [Elephant] | 85.3 | 172 | – | – | 231
11 | AGCGCUAUGCAUGAUACCAGCUACAUGAGGAUCACCCAUGUGCGUCAGAAAUGACUGUGUAGCCCUUGGCAGCAUAAAGCAUGUA [Exclusion - Theophylline B (Freestyle 9)] | 19.4 | 24.1 | 17.2 | – | –
12 | AAUAAGUAUCUGCUAGGUGAUCCAGCAGAUACCAGCUAGGAAACUAGCCCUUGGCAGCUGCAACAUGAGGAUCACCCAUGUAAUA [(T)'-(M)'-(T1)-(T2)-(M1)-(M2)_Design3] | 98.7 | 193 | 407 | – | –
13 | GAUGAACAUACUGAUACCAGUGUACUGACAUGAGGAUCACCCAUGUUGGGUUUUGUUGUACACCCUUGGCAGCAGAAUGUUUAUC [AstrosExyTheB#7] | 46.2 | 66.5 | 55.4 | – | –
14 | GAGCUGAUGUAGAGAUUUUAUUUCUGAGAUACCAGUACAGAAAUGUACCCUUGGCAGCUCAGCUUUACAUGAGGAUCACCCAUGU [Ex Theophylline A 16] | 16.9 | 17.8 | 17.6 | – | –
15 | AGGAGACAUGAGGAUCACCCAUGUCCAGAUACCAGAAUGUCUUUGUUCCCUUGGCAGCUGUGGAAAUCUGACCUGCCUCGGUCUG [theeternabot_sameState_MS2_Theo_A_31] | 14.6 | 17.9 | 15.2 | – | –
16 | UCGCUCGCCGCAAGGCGAGCGAGUUGCGAUACCAGCCCGGAAACGGGCCCUUGGCAGCGCACAUGAGGAUCACCCAUGUCAUGUU [#1 Exclusion - Theophylline A Attempt #4 (HarryS)] | 24.7 | 31.3 | 16.1 | 25 | 30.4
17 | ACAUACAUGAGGAUCACCCAUGUCCAUGUUCGAGGACCGGUACGGCCGCCACUCGCGCGACAGCAUGAGGAACUUGAGGAUCACA [Exclusion Tryptophan A] | 39.5 | 104 | 48.8 | 63.8 | 82.2
18 | UGUAUGUGAUUUGAUACCAGACCAGCUGGUGGUGCAUGAGGAUCACCCAUGCAGGUUUGGGUCCCUUGGCAGCAAAUCGCAUACU [SS Theo B #24 Ms17] | 72.5 | 135 | 129 | 119 | 21.6
19 | AAUUCCUAACAUGAGGAUCACCCAUGUGAAGGAGCGCCGAAUAAGGCAGGUAGGUCGCACAUGGAACCGCUACGAAAGUAGCAAA | 22.5 | 23.6 | 17.8 | 23.5 | 21.6
20 | ACAUGAGGAUCACCCAUGUUCCUCGCCGAUACCAGUGAAGAAGAACGCCCUUGGCAGCGGAAAGAGUAUUUUGGAGAUGAGGUAC [6.X] | 72.5 | 134 | 124 | – | –
21 | UCGUGUGUUUCGGAUACCAGUGAAAUCGAUACAUGAGGAUCACCCAUGUGAGAGGAUGUACACCCUUGGCAGCUGGCUGUAGCGG [yyzmullin] | 32.1 | 56.9 | 44.3 | – | –
22 | AAAAUAAAAGGUGCAAAAUCCUAAUGUGAAGGAGCGCACGAAAGUGCAGGUAGGUCGCACAUGAGGAUCACCCAUGUAGCACCAA [ArgEX 4 #SwitchBubble] | 54.8 | 115 | 147 | 146 | 211
23 | UAUAUAGAUGGACGUCAUCUAGAUGCAGAAGGAGCGUAGGAAACUACAGGUAGGUCGCUGAGGUACAUGAGGAUCACCCAUGUAG [SSArg A #21 Slice of Pi] | 22.7 | 28.8 | 21.5 | 18.9 | 27
24 | GGAUAGGACACGGCCGCCACUAGCUAGGAUACUAGCAACAUUUCCUCACUUGAGGAUCACCCAGGUAGGACCGGGUGUCCUAUCG | 143 | 577 | 620 | 580 | 1430
25 | UGUAUGUGAUCUGAUACCAGUCCAACUGGUAAAAGAUGAGGAUCACCCAUCUAAAAUUGGGACCCUUGGCAGCAGAUCGCAUACU | 91.7 | 122 | 264 | 264 | 13.7
26 | UGUAUGGACUGAAGGAGCGGUAGAUAACCUGAGGAUCACCCGGGUAAUAAAGGCGAAAGCCACCAGGUAGGUCGCAGUCCAUACU | 93.3 | 173 | 262 | 206 | 321
27 | AAGUGGCACGGAAGGAGCGAGUUUACCUAGAUAACAUGAGGAUCACCCAUGUAUAAUGGGACUCAGGUAGGUCGCCGCUGUCACU [#30 Same State - Arginine B] | 34.9 | 58.3 | 41.5 | 41.5 | 38.6
28 | AGAUUCGACACGGCCGCCACUCGAGACGGAUUUCCGAGUGUCGAACAUGAGGAUCACCCAUGUCCGAGGACCGGGUGUUGAGUCU [XTryp B #10] | 24.3 | 42.8 | – | – | 51.1
29 | UACAUGAGGAUCACCCAUGUCUGAACUGAAGGAGCGCUAAAUAAGGCAGGUAGGUCGCGGAAUUUUGUGUGCAUAUGCAUAUGGG [9.L] | 34.5 | 39.4 | 38.2 | 36.4 | 37.9
30 | UUUUUUAACUGAAGGAGCGUCACAUGAGGAUCACCCAUGUAUUAGAUGAGAAUGAUCUUGUGGCAGGUAGGUCGCAGAGGAAGGG [#30 Exclusion - Arginine B] | 521 | 167 | 370 | 327 | 271

Source: the supplement of paper PMC9170038
